Source: US20250188176A1
Changes are numbered by the printed parent chain.

B1: FJ2246MP07H09 (Fab, V domains shown)
VH: EVQLVESGGDLVKPGGSLRLSCVASGFTFRDYAMTWVRQAPGKGLQWVSLINGSGGKTYYADAVKGRFTISRDNAKNTLYLQMNSLRAEDTAVYYCAVDRLTKTIRPQYYGLWSWGQGTLVTVSS
VL: DIVMTQTPLSLSVSPGETASISCRSSQSLLYSIGYNYLDWYLQKPGQSPQGLIYLGSKRASGVPDRFSGSGSGTDFTLRISRVEANDTGVYYCMQGLQSPLTFGQGTKLEIKR
B2: FJ2246MP07A09 (Fab, V domains shown)
VH: B1 VH with L112M
VL: B1 VL
B3: FJ2246MP06H07 (Fab, V domains shown)
VH: B1 VH with S54T, S114A
VL: B1 VL
B4: FJ2246MP06D01 (Fab, V domains shown)
VH: B1 VH with T28P, I51V, G56S, S114V
VL: B1 VL
B5: FJ2246MP07A10 (Fab, V domains shown)
VH: B1 VH with I105V
VL: B1 VL
B6: FJ2246MP05F12 (Fab, V domains shown)
VH: B1 VH with T28P, S114V
VL: B1 VL
B7: FJ2246MP10A09 (Fab, V domains shown)
VH: B1 VH with N52S, S114V
VL: DIVMTQTPLSLSVSPGETASISCRSSQSLLYSIGYNYLDWYLQKPGQSPQGLIYLGSKRASGVPDRFSGSGSGTDFTLRISRVEAEDTGVYYCMQGLHSPLSFGQGTKLEIK
B8: FJ2246MP06G08 (Fab, V domains shown)
VH: B1 VH with S54N, G56S, S114V
VL: B1 VL
B9: FJ2246MP10F04 (Fab, V domains shown)
VH: B1 VH with N52S, S114V
VL: B7 VL with Q27K, E86D, S102T
B10: FJ2246MP10B12 (Fab, V domains shown)
VH: B1 VH with N52S, S114V
VL: B7 VL with S72N
B11: FJ2246MP06E12 (Fab, V domains shown)
VH: B1 VH with S54N, S114V
VL: B1 VL
B12: FJ2246MP10H11 (Fab, V domains shown)
VH: B1 VH with N52S, S114V
VL: B7 VL with E86N

Each binder was assayed against canine IL-4RA (construct not given) (canine) (assay: SPR, IL-4RA immobilised, periplasmic Fab).
Binder B1 has an Improvement over parental of 5.4 fold, an RU max of 509 RU and a koff of 5.23e-05 s⁻¹.
B2 was tested, and the Improvement over parental was 4.2 fold, the RU max was 252 RU and the koff was 6.73e-05 s⁻¹.
B3 showed an Improvement over parental of 3.7 fold, an RU max of 568 RU and a koff of 7.5e-05 s⁻¹.
Work on B4 yielded an Improvement over parental of 3.6 fold, an RU max of 323 RU and a koff of 7.72e-05 s⁻¹.
Binder B5 has an Improvement over parental of 3.4 fold, an RU max of 614 RU and a koff of 8.18e-05 s⁻¹.
In the case of B6, the Improvement over parental is reported as 3.2 fold, the RU max is reported as 208 RU and the koff is reported as 8.83e-05 s⁻¹.
B7 was tested, and the Improvement over parental was 3.1 fold, the RU max was 437 RU and the koff was 8.91e-05 s⁻¹.
Work on B8 yielded an Improvement over parental of 3.1 fold, an RU max of 199 RU and a koff of 9.01e-05 s⁻¹.
For B9, the Improvement over parental was 3.1 fold, the RU max was 292 RU and the koff was 9.16e-05 s⁻¹.
For B10, the Improvement over parental was 3 fold, the RU max was 304 RU and the koff was 9.41e-05 s⁻¹.
With B11 the Improvement over parental was 2.9 fold, the RU max was 127 RU and the koff was 9.66e-05 s⁻¹.
B12 gave an Improvement over parental of 2.8 fold, an RU max of 261 RU and a koff of 9.9e-05 s⁻¹.
